9 molecules from patent publication US20150086557A1, “NOVEL INTEGRIN alpha9 beta1 LIGAND AND USES THEREOF” (OSAKA UNIVERSITY, priority 2012, published 2015) can be followed below.

One test has as its target T1, integrin α9β1 (Homo sapiens, UniProt P05556+Q13797).
T1 construct: A cDNA encoding the extracellular region of human integrin α9; An expression vector for the extracellular region of integrin β1; ACID coiled-coil (Velcro) peptide; FLAG; BASE coiled-coil (Velcro) peptide; made in house; host or cells: FreeStyle 293 Expression System (293-F cells)
Put plainly: Direct integrin binding assay with recombinant integrin α9β1. The note with it: for binding of integrin α9β1 to smaller segments of D2628-S2664: 1 mM MnCl2, FIG. 13; for binding of recombinant integrin α9β1 to coated protein: 1 mM MnCl2, FIG. 7. The text has this: A cDNA encoding the extracellular region of human integrin α9 was amplified by RT-PCR from total RNA extracted from RD cells and cloned into pBluescript KS(+). After verification of the nucleotide sequence, an error-free cDNA fragment was inserted into pcDNA-ACID-FLAG (Nishiuchi, R., Takagi, J., Hayashi, M., Ido, H., Yagi, Y., Sanzen, N., Tsuji, T., Yamada, M., and Sekiguchi, K. (2006) Matrix Biol. 25, 189-197). An expression vector for the extracellular region of integrin β1 was provided by Dr. Junichi Takagi (Takagi, J., Erickson, H. P., and Springer, T. A. (2001) Nat. Struct. Biol. 8, 412-416). The recombinant integrins were produced using the Freestyle™ 293 Expression System (Invitrogen) and purified as described in the above-mentioned publication Matrix Biol. 25, 189-197, (2006).
An integrin binding assay was performed as described in the above-mentioned publication Matrix Biol. 25, […], (2006). In some experiments, integrins were preincubated with synthetic peptides at various concentrations to evaluate the inhibitory activities of the synthetic peptides. The apparent dissociation constants were determined as described in Nishiuchi, R., Murayama, O., Fujiwara, H., Gu, J., Kawakami. T., Aimoto, S., Wada, Y., and Sekiguchi, K. (2003) J. Biochem, 134, 497-504.
To corroborate the role of integrin α9β1 as an adhesion receptor for polydom, a direct integrin binding assay was performed, using recombinant integrin α9β1. Plates were coated with full-length polydom, pol-N, pol-C, plasma fibronectin (pFN) or cellular fibronectin (cFN), and recombinant integrin α9β1 was added and allowed to bind thereto in the presence of 1 mM MnCl2 or 10 mM EDTA. BSA was used as a negative control. The bound integrin was quantified using a biotinylated anti-Velcro antibody and HRP-conjugated streptavidin.
Integrin α9β1 is known to bind to the third fibronectin type III domain of tenascin-C (TNfn3) and the osteopontin N-terminal half (OPN-Nhalf). These integrin α9β1 ligands were recombinantly expressed as GST fusion proteins and then purified. In the GST fusion proteins, the RGD cell-adhesive motifs were replaced with RAA to nullify their abilities to interact with RGD-binding integrins, such as those containing the αv subunit, Microtiter plates were coated with pol-C (10 nM), GST-TNfn3-RAA (100 nM) or GST-OPN-Nhalf-RAA (100 nM), and integrin α9β1 was added and allowed to bind thereto in the presence of 1 mM MnCl2.
To locate the integrin α9β1-binding site within polydom, a series of five N-terminal deletion mutants of polydom (pol-C, ΔEGF6, ΔPTX, ΔCCP20 and ΔCCP21; see FIG. 9) were constructed. Their binding activities for integrin α9β1 were evaluated in the presence of 1 mM MnCl2 or 10 mM EDTA using microtiter plates coated with these recombinant proteins (10 nM).
Among the 34 CCP domains within polydom, CCP21 is unique because it contains about 40 extra amino acids as compared with the other CCP domains. An assay to examine whether this extra region (hereinafter referred to as “extra segment”) within CCP21 is involved in binding to integrin α9β1 was performed, Microtiter plates were coated with a GST-CCP21 fusion protein, a D2628-S2664 deletion mutant of the GST-CCP21 fusion protein (CCP21ΔD2628-S2664), D2628-S2664 alone (see FIG. 11), pol-C or GST alone, and integrin α9β1 was added and allowed to bind thereto in the presence of 1 mM MnCl2 or 10 mM EDTA.
To further narrow down the region responsible for binding to integrin α9β1, the extra 37-amino acid segment of CCP21 was divided into smaller segments, of which GST fusion proteins were produced. Microtiter plates were coated with eight kinds of segments including CCP21, pol-C and GST alone, and integrin α9β1 was added and allowed to bind thereto in the presence of 1 mM MnCl2 or 10 mM EDTA.
To identify the residues involved in binding to Integrin α9β1, alanine scanning mutants and N-terminal or C-terminal deletion mutants of D2634-L2645 were produced as GST fusion proteins. […]

In another test the test system is hematopoietic stem cells. Put plainly: Proliferation of hematopoietic stem cells on coated plates. Type of test: cell-based, mouse. Conditions: peptide 50 μM for 2 hours, then polydom-coated plate, FIG. 20. The procedure:
Bone marrow cells were flushed out from the femurs and tibias of three mice of 6 to 7 weeks of age (C57BL/6J) and dissociated with a 22G needle. The cells were reacted with a biotin-labeled anti-lineage antibody for 30 minutes and subsequently with an anti-blotin antibody-conjugated magnetic beads, and lineage-positive cells were removed by automated magnetic cell sorter autoMACS (Miltenyi Biotec). After staining with PE-CD3, PE-Mac1, PE-Gr1, PE-Ter119, PE-B220, FTTC-Sca1 and APC-c-Kit, a lineage(−) Sca1(+) c-Kit (high) cell fraction was sorted out using FACSAria and used for the experiments described below.
The above-prepared cells were plated on a 48-well plate coated with a recombinant polydom protein or fibronectin. The same type of plate without coating was used as a control. The medium used was RPMI containing 10% fetal calf serum, thrombopoietin (30 ng/ml) and flt3 ligand (100 ng/ml). For the examination of cell proliferation, the cells were plated in duplicate wells for each coating at 1000 cells/well and started to be cultured, and the cell number was counted at the start of culture, and on day 2 and day 3. The remaining cells were divided into three aliquots, plated in wells for each coating, and subjected to FACS analysis on day 3 after the start of culture. For the FACS analysis, staining with an antibody cocktail containing PE-CD3, PE-Mac1, PE-Gr1, PE-Ter119, PE-B220, FITC-Sca1 and APC-c-Kit was performed and FACSCont was used.
The above-prepared cells were divided into three groups and plated on 48-well plates at 5000 cells/well. The medium used was RPMI containing 10% fetal calf serum, thrombopoietin (30 ng/ml) and flt3 ligand (100 ng/ml). For an EDDMMEVPY peptide treatment group, 2 μl of the peptide was added to each well at the final concentration of 50 μM, and for the other two groups, 2 μl of PBS was added to each well. Then, the culture was performed at […] for 2 hours. Subsequently, the cells were transferred to 48-well plates coated with a recombinant polydom protein or fibronectin. The cells cultured in the presence of the peptide were transferred to the recombinant polydom protein-coated plate, and the cells in one of the other two groups were transferred to the recombinant polydom protein-coated plate, and the cells in the remaining group were transferred to the fibronectin-coated plate. The culture was continued for 3 days and the cell numbers were counted on day 2, day 3 and […].

For a further test, the system named is RD cells. Put plainly: Cell adhesion assay on coated plates (RD cells). Conditions: for promotion of RD cell adhesion: coated 96-well plates, 37° C. for 30 minutes. It is filed as cell-based, human. How it is done:
A cell adhesion assay was performed as described in Sato, Y. , Uemura, T., Morimitsu, K., Sato-Nishiuchi, R., Manabe, R., Takagi, J., Yamada, M., and Sekiguchi, K. (2009) J. Biol. Chem. 284, 14524-14536. For an assay involving blocking antibodies, RD cells (human rhabdomyosarcoma cells) were preincubated with monoclonal antibodies of interest at room temperature for 15 minutes and plated on 96-well plates coated with recombinant polydom proteins or fibronectin. The cells were incubated for 30 minutes, washed, fixed with 3.7% formaldehyde, and stained with 0.5% toluidine blue.
The cells were plated on 96-well plates coated with serial diluted concentrations of full-length polydom, pol-N, pol-C or plasma fibronectin (FN) and incubated at 37° C. for 30 minutes. After washing out unattached cells, attached cells were fixed and stained with toluidine blue. The attached cells were counted under a microscope. The assay was performed in triplicate.

Test [1] concerns the target recombinant integrin α9β1 (human, UniProt Q13797 30-981; P05556 21-728). Put plainly: inhibition of integrin α9β1 (10 nM) binding to coated pol-C (10 nM) by synthetic peptide, 1 mM MnCl2, 10% DMSO. How it is done:
To further corroborate the role of […] as the integrin α9β1 recognition sequence, an integrin α9β1-pol-C binding inhibition assay was performed using synthetic peptides consisting of the […] sequence or a part of the sequence, Integrin α9β1 (10 nM) was incubated on microtiter plates coated with pol-C (10 nM) in the presence of 1 mM MnCl₂ and various concentrations of the synthetic peptides. To prevent precipitation of the peptides, the assay was performed in the presence of 10% DMSO. Based on the amount of integrin α9β1 bound to pol-C set as 100%, the relative binding amount was calculated.

Where no end group is shown, it is not given here.

T1 sequence (Q13797 30-981 limits assumed): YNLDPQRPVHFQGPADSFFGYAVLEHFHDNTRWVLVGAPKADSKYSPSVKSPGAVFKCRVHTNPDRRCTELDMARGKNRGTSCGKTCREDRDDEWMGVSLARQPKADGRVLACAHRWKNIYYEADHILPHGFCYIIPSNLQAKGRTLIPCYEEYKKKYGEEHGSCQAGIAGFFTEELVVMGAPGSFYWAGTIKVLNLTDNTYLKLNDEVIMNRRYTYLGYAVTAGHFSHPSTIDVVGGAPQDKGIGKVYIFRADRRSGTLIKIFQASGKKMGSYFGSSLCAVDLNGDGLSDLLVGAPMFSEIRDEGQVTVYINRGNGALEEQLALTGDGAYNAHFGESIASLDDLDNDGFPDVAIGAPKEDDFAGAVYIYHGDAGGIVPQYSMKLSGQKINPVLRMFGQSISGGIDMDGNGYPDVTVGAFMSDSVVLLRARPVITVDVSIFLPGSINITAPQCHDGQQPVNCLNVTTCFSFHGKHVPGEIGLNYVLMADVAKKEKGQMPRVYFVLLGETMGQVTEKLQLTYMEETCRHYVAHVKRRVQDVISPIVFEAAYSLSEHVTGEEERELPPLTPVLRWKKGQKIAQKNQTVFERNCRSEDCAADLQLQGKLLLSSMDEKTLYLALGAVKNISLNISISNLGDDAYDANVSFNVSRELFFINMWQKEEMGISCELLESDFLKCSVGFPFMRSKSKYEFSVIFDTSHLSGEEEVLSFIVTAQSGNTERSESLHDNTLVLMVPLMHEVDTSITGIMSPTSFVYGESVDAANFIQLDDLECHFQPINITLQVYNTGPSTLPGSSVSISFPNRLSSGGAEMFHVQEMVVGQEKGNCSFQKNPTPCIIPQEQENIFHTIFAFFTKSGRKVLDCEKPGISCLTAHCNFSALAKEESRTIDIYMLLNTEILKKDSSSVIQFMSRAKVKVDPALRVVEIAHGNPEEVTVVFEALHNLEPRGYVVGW
T1 sequence (P05556 21-728 limits assumed): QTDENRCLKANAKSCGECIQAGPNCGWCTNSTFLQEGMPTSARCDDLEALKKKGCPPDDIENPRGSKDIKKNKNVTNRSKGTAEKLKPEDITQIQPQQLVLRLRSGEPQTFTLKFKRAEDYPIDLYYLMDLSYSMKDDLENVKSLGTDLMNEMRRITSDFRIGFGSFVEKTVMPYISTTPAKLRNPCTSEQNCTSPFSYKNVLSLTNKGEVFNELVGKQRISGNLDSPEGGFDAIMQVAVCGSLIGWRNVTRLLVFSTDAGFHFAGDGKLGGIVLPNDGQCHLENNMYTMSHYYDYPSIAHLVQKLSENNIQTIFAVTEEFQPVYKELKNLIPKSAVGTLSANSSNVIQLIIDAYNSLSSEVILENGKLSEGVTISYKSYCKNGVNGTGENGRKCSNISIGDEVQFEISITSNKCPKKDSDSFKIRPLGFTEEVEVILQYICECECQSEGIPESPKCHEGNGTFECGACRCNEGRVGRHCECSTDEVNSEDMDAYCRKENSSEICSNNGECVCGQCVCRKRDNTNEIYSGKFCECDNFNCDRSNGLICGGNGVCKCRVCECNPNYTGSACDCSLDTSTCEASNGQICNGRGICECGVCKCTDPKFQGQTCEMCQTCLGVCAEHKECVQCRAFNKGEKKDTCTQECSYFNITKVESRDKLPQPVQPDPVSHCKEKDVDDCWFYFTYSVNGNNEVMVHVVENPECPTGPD
recombinant integrin α9β1, sequence (Q13797 30-981, chain 1 of 2): as the sequence (Q13797 30-981 limits assumed) above
recombinant integrin α9β1, sequence (P05556 21-728, chain 2 of 2): as the sequence (P05556 21-728 limits assumed) above

Take “D2628-L2645: segment in the N-terminal region of D2628-S2664, GST fusion protein (DGQGHFDQEDDMMEVPYL; also: GST fusion protein)”: the “binding of integrin α9β1 to smaller segments of D2628-S2664” value with integrin α9β1 (GST fusion proteins) was “bound”.

For EDDMMEVPY [EDDMMEVPY], the “proliferation of hematopoietic stem cells on polydom-coated plate after peptide treatment” value with hematopoietic stem cells (listed as EDDMMEVPY peptide) is “proliferate albeit more slowly than the cells on the fibronectin-coated plate”; with hematopoietic stem cells (listed as peptide consisting of the amino acid sequence represented by SEQ ID NO: 1), “canceled”.

Turning to “E2641A: alanine substitution of Glu2641 in D2634-L2645, GST fusion protein (DQEDDMMAVPYL; also: GST fusion protein)”, the “integrin binding activity of alanine scanning mutants of D2634-L2645” value with integrin α9β1 (GST fusion proteins, FIG. 14) is on record as “almost completely abrogated the integrin binding activity”.

With “D2628-S2664: extra 37-amino acid segment of CCP21, GST fusion (DGQGHFDQEDDMMEVPYLAHPQHLEATAKALENTKES; also: GST fusion)”, the “binding to integrin α9β1 (extra segment of CCP21)” value in the test with integrin α9β1 (GST fusion proteins, 1 mM MnCl2, FIG. 12) is reported as “retained the binding activity”.

With “D2634-L2645: 12-amino acid segment in the extra segment of CCP21, GST fusion protein (DQEDDMMEVPYL; also: GST fusion protein)”, the “binding of integrin α9β1 to smaller segments of D2628-S2664” value with integrin α9β1 (GST fusion proteins) is listed as “bound”.

Regarding “pol-C: C-terminal fragment of polydom, residues 1192 to 3567 of SEQ ID NO: 2, C-terminal His tag”, in the test on RD cells (FIG. 4), the “cell adhesion potency compared with full-length polydom” value was “almost equivalent to that of full-length polydom” and the “promotion of RD cell adhesion” value was “capable of promoting cell adhesion”. For the same molecule, the “morphology of attached RD cells” value with RD cells (microscopic observation, FIG. 5) is on record as “exhibited spread morphology”. Moreover, the “binding of recombinant integrin α9β1 to coated protein” value in the test with integrin α9β1 was “bound”. Also, the Kd with integrin α9β1 (pol-C coated at 10 nM, 1 mM MnCl2, three independent determinations, read-out: dissociation constant between integrin α9β1 and ligand) was 32.4 ± 2.7 nM.

By IC50 is commonly meant the point on the concentration scale where inhibition reaches its midpoint. For the molecule AEIDGIEL [AEIDGIEL peptide (integrin α9β1 recognition sequence in tenascin-C, synthetic)], the IC50 in test [1] came to 7800 nM.

B1: pol-N: N-terminal fragment of polydom, residues 18 to 789 of SEQ ID NO: 2, C-terminal His tag (protein, listed as Mus musculus)
chain: WTNFQPVAPSLNFSFRLFPEASPGALGRLAVPPASSEEEAAGSKVERLGRAFRSRVRRLRELSGSLELVFLVDESSSVGQTNFLNELKFVRKLLSDFPVVSTATRVAIVTFSSKNNVVARVDYISTSRAHQHKCALLSREIPAITYRGGGTYTKGAFQQAAQILRHSRENSTKVIFLITDGYSNGGDPRPIAASLRDFGVEIFTFGIWQGNIRELNDMASTPKEEHCYLLHSFEEFEALARRALHEDLPSGSFIQEDMARCSYLCEAGKDCCDRMASCKCGTHTGQFECICEKGYYGKGLQHECTACPSGTYKPEASPGGISTCIPCPDVSHTSPPGSTSPEDCVCREGYQRSGQTCEVVHCPALKPPENGFFIQNTCKNHFNAACGVRCRPGFDLVGSSIHLCQPNGLWSGTESFCRVRTCPHLRQPKHGHISCSTAEMSYNTLCLVTCNEGYRLEGSTRLTCQGNAQWDGPEPRCVERHCATFQKPKGVIISPPSCGKQPARPGMTCQLSCRQGYILSGVREVRCATSGKWSAKVQTAVCKDVEAPQISCPNDIEAKTGEQQDSANVTWQVPTAKDNSGEKVSVHVHPAFTPPYLFPIGDVAITYTATDSSGNQASCTFYIKVIDVEPPVIDWCRSPPPIQVVEKEHPASWDEPQFSDNSGAELVITSSHTQGDMFPHGETVVWYTATDPSGNNRTCDIHIVIKGSPCEVPFTPVNGDFICAQDSAGVNCSLSCKEGYDFTEGSTEKYYCAFEDGIWRPPYSTEWPDCAI
modifications: C-terminal His tag
Consider B1, for which the “promotion of RD cell adhesion” value with RD cells (FIG. 4) is on record as “only pol-C was capable”. In addition, in the test with integrin α9β1, the “binding of recombinant integrin α9β1 to coated protein” value is listed as “not”.

B2: EDDMMEVPY peptide (synthetic) (peptide)
peptide: EDDMMEVPY
notes: Corresponds to Glu2636-Tyr2644 of mouse SVEP1
Regarding B2, in test [1], the IC50 was 180 nM.
